“Also recorded” adds a separate entry of the source.
Legend:
[1] = molecular target: T1, CTCF zinc finger domains 1–11 (residues 263–582), MBP-fused (Homo sapiens, UniProt P49711); test: Biolayer interferometry (BLI), immobilised BRK-BRG1 vs MBP-fused CTCF zinc fingers 1–11; format: binding
T1 construct: CTCF zinc finger domains 1–11 (residues 263–582) and 4–8 (residues 348–494); made in house; host or cells: E. coli BL21
Description: (§1) 4.8. Recombinant CTCF Zinc Finger Domains 1–11 and 4–8 Expression and Purification
(§2) The plasmids CTCF-ZF1-11-pMalC2G and CTF-ZF4-8-pMalC2G, obtained as previously reported, were used to transform E. coli BL21 host strain. Transformed colonies were inoculated in LB 0.2% glucose medium and grown a 37 °C, until the culture reached the optical density of 0.6 nm at 600 nm (OD600). At this point of growth, 200 µM ZnSO4 was added to the culture and the expression of the protein was induced by using IPTG 0.3 mM. When the culture reached 0.9 OD600, bacterial cells were harvested by centrifugation. Pellets were resuspended in PBS (pH 7.4) and lysed by sonication on ice. Lysates were centrifuged for 30 min at 27.500 relative centrifugal force and the supernatants containing the expressed proteins were loaded on amylose resin (New England Biolabs, Milan, Italy), according to the manufacturer’s protocol, and incubated overnight under rotation. Following washes with 1X PBS, the purified proteins MBP-CTF-ZF4-8 and MBP-CTCF-ZF1-11 were obtained adding maltose elution buffer (10 mM maltose, 1X PBS). Then, the affinity-purified proteins were loaded onto an HiLoad 26/60 Superdex 75 gel filtration chromatography column (GE Healthcare, Milan, Italy) equilibrated and eluted with PBS. The purified products were finally concentrated using a Amicon Ultra Centrifugal Filter (Merck).
4.9. […]

[2] = molecular target: T2, CTCF zinc finger domains 4–8 (residues 348–494), MBP-fused (Homo sapiens, UniProt P49711); test: Biolayer interferometry (BLI), immobilised BRK-BRG1 vs MBP-fused CTCF zinc fingers 4–8; format: binding
T2 construct: and 4–8 (residues 348–494) in a bacterial expression system; made in house; host or cells: E. coli BL21
Description: as §1, §2
4.9. […]

[3] = tested on: BRK-BRG1 (BRK domain of human BRG1, region 612–656); test: BLI detection limit, MBP-fused CTCF zinc finger domains on immobilised BRK-BRG1; format: binding; settings: PBS
Description: 4.9. Binding of BRK-BRG1 to Recombinant CTFC Multiple Zinc Finger Domains by Biolayer Interferometry (BLI)
BLI measurements were performed using a BLItz system and ARG2 commercial biosensors (ForteBio, CA, United States), following the manufacturer’s instructions. A reduced volume sample cuvette (4 µL) was used for all the experiments. Assays were performed by immobilizing the synthetic BRK-BRG1 domain on the surface of the sensor chip and exposing it to solutions of recombinant CTFC domain 1–11 or CTCF domains 4–8, both fused to MBP, dissolved in PBS at increasing concentrations. After pre-hydration for 10 min in PBS buffer, the immobilization was achieved by pre-activating the sensor surface for 180 s with EDC/NHS, both in water, at 0.4 M and 0.1 M, respectively. Then, the sensor chip was exposed for 300 s to a solution of BRK-BRG1 at 200 µg/mL in sodium acetate pH 4.5. After extensive washing with buffer, the sensor chip surface was deactivated using 1 M ethanolamine in water pH 8.5 for 180 s. Binding assays were performed after exposure for 30 s to PBS (running buffer) to acquire the initial baseline. Next, the derivatized chip was exposed to the CTFC protein solutions in PBS for 120 s, followed by PBS washes (120 s). Then, the sensor chip was fully regenerated, restoring the baseline, by treatment with a solution of NaOH 5 mM for 10 s and a further wash with PBS. […]

[4] = Precipitation of MBP-fused CTCF domains 1–11 in PBS; format: physicochemical; settings: concentrations higher than 3.0 µM
Description: as §2, with “(Merck). […]” for “(Merck).”

[5] = molecular target: T3, MBP-fused CTCF zinc finger domains 1–11 (residues 263–582) (human, UniProt P49711 263-582); test: BLI; synthetic BRK-BRG1 immobilised on ARG2 biosensor by EDC/NHS (BLItz); MBP-fused CTCF zinc finger domains as analytes in PBS; free MBP signal subtracted; KD from plateau shifts, one binding site hyperbola; settings: both partners purified
T3 construct: CTCF zinc finger domains 1-11, residues 263-582; also called MBP-CTCF-ZF1-11; CTCF domains 1–11; source: E. coli BL21, purified (amylose resin, Superdex 75 gel filtration)
T3 sequence (looked up): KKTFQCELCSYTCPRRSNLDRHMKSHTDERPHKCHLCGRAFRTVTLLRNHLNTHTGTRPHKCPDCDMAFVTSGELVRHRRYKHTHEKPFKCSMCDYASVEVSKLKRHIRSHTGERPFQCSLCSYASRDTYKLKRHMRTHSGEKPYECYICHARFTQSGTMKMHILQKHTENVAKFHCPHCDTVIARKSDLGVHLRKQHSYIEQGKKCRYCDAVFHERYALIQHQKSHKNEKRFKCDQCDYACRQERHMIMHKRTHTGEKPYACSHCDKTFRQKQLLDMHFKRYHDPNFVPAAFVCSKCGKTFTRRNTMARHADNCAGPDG

[6] = molecular target: T4, MBP-fused CTCF zinc finger domains 4–8 (residues 348–494) (human, UniProt P49711 348-494); test: as above; settings: both partners purified
T4 construct: CTCF zinc finger domains 4-8, residues 348-494; also called MBP-CTF-ZF4-8; CTCF domains 4–8; source: E. coli BL21, purified (amylose resin, Superdex 75 gel filtration)
T4 sequence (looked up): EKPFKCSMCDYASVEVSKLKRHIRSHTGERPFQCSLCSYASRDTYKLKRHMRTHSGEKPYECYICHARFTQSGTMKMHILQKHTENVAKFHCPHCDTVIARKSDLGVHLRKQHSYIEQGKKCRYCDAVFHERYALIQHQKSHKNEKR

**Q.** Which results are given for “Ac-MSDLPVKVIHVESGKILTGTDAPKAGQLEAWLEMNPGYEVAPRSD-NH2 [BRK-BRG1]”?
**A.** direct binding to CTCF zinc finger region 1–11, result in words [1]: binds the CTCF region including the eleven zinc finger domains; direct binding to CTCF zinc fingers 4–8, result in words [2]: direct binding; also recorded: the region encompassing domains from 4 to 8 strongly contributes to this interaction; also recorded: binds the zinc finger motifs 4–8 of CTCF

B1: MBP-fused CTFC domains 1–11: recombinant maltose-binding protein (MBP)-fused CTCF zinc finger domains 1–11 (residues 263–582) (protein)
chain: KKTFQCELCSYTCPRRSNLDRHMKSHTDERPHKCHLCGRAFRTVTLLRNHLNTHTGTRPHKCPDCDMAFVTSGELVRHRRYKHTHEKPFKCSMCDYASVEVSKLKRHIRSHTGERPFQCSLCSYASRDTYKLKRHMRTHSGEKPYECYICHARFTQSGTMKMHILQKHTENVAKFHCPHCDTVIARKSDLGVHLRKQHSYIEQGKKCRYCDAVFHERYALIQHQKSHKNEKRFKCDQCDYACRQERHMIMHKRTHTGEKPYACSHCDKTFRQKQLLDMHFKRYHDPNFVPAAFVCSKCGKTFTRRNTMARHADNCAGPDG
modifications: left off: MBP, end not stated, kept
**Q.** With B1 as the molecule, how does the “BLI shift at low concentration, domains 1–11” value ([3]; solutions at concentrations below 0.5 µM) read?
**A.** No shifts were measured

**Q.** What about the “precipitation of the protein” value [4] of the same molecule?
**A.** the protein underwent precipitation

B2: BRK domain of BRG1, region 612–656, synthetic polypeptide (peptide)
chain: Ac-MSDLPVKVIHVESGKILTGTDAPKAGQLEAWLEMNPGYEVAPRSD-NH2
notes: BRK domain of human BRG1, region 612-656; Coupled to the BLI sensor by EDC/NHS chemistry; also called BRK-BRG1; BRK-BRG1 domain; source: synthetic peptide (solid phase synthesis, purified by RP-HPLC)
**Q.** Which results are given for B2?
**A.** Kd [5]: ~2.3 µM; Kd [6]: ~0.095 µM

B3: MBP-fused CTFC domain 4–8: recombinant maltose-binding protein (MBP)-fused CTCF zinc finger domains 4–8 (residues 348–494) (protein)
chain: EKPFKCSMCDYASVEVSKLKRHIRSHTGERPFQCSLCSYASRDTYKLKRHMRTHSGEKPYECYICHARFTQSGTMKMHILQKHTENVAKFHCPHCDTVIARKSDLGVHLRKQHSYIEQGKKCRYCDAVFHERYALIQHQKSHKNEKR
modifications: left off: MBP, end not stated, kept
**Q.** With B3 as the molecule, how does the “BLI shift at low concentration, domains 4–8” value ([3]; solutions at concentrations below 10 nM) read?
**A.** No shifts were measured

Reference: article PMC7728349, “Exploring the Interaction between the SWI/SNF Chromatin Remodeling Complex and the Zinc Finger Factor CTCF” (International Journal of Molecular Sciences, 2020)
